Patent publication US6514936 (Bayer, dated 2003)

T1: Human rhinovirus serotype 3 (HRV3), purified virion (human rhinovirus serotype 3, UniProt Q82081 562-855; Q82081 70-331; Q82081 332-561; Q82081 2-69)
T1 sequence 1: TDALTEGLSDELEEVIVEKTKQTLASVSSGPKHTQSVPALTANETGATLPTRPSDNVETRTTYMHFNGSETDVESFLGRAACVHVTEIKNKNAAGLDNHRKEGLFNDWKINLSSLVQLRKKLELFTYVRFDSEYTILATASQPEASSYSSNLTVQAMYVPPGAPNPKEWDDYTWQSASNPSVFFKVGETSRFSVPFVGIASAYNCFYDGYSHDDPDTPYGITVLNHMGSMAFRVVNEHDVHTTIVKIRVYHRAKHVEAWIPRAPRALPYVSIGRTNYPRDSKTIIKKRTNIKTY
T1 sequence 2: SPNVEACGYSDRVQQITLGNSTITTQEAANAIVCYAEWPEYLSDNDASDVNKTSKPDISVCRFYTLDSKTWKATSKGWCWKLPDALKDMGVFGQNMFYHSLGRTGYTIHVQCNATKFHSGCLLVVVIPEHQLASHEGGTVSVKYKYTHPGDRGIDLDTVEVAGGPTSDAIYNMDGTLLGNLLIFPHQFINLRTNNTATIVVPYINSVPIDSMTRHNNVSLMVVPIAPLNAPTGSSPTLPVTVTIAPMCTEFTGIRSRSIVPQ
T1 sequence 3: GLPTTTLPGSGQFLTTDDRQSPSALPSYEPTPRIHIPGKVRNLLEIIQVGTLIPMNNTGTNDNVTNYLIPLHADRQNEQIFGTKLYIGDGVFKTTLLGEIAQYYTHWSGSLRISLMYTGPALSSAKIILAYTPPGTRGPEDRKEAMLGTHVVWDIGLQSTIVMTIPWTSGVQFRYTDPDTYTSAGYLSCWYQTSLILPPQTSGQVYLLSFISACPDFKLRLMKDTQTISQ
T1 sequence 4: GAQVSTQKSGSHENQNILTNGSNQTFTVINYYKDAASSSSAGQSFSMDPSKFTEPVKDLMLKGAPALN


Tests used:
[1] = molecular target: T1, Human rhinovirus serotype 3 (HRV3), …; experiment: cell-based or functional assay
[2] = molecular target: T1, Human rhinovirus serotype 3 (HRV3), …; experiment: cell-based or functional assay; remark: listed apart in the source
[3] = molecular target: T1, Human rhinovirus serotype 3 (HRV3), …; experiment: solid-phase competition against [35S]-HRV3 binding to ICAM-1-coated plates
[4] = molecular target: T1, Human rhinovirus serotype 3 (HRV3), …; experiment: pelleting assay, [35S]-cysteine-labelled ICAM mixed with HRV3 and centrifuged; average of 4 experiments
[5] = molecular target: T1, Human rhinovirus serotype 3 (HRV3), …; experiment: solid-phase competition, soluble ICAM against [35S]-HRV3 binding to ICAM-1-coated plates, 0.1% Triton X-100; average of three experiments ± S.D.
[6] = molecular target: T1, Human rhinovirus serotype 3 (HRV3), …; experiment: dot-blot, normalised [35S]-HRV3 binding of immobilised ICAM against that of immobilised tICAM(453)

Binder | neutralization IC50 in Assay III relative to tICAM(185) [1] [fold] | IC50, neutralization of HRV3 infectivity, Assay I (continuous) [2] [µM] | IC50, neutralization of HRV3 infectivity, Assay II (Pretreatment) [2] [µM] | IC50, neutralization of HRV3 infectivity, Assay III (high MOI) [2] [µM] | fold higher IC50 than tmICAM [3] [fold] | % ICAM Pelleted [4] [%] | IC50 [5] [µM] | fold difference of IC50 against tICAM(453) [3] [fold] | ratio ICAM/tICAM (453) [6]
tICAM(453) (receptor, range 1-453; On the UniProt precursor it is shifted by the length of the signal peptide; also called truncated ICAM, domains I-V; entire extracellular domain of ICAM-1) QTSVSPSKVILPRGGSVLVTCSTSCDQPKLLGIETPLPKKELLLPGNNRKVYELSNVQEDSQPMCYSNCPDGQSTAKTFLTVYWTPERVELAPLPSWQPVGKNLTLRCQVEGGAPRANLTVVLLRGEKELKREPAVGEPAEVTTTVLVRRDHHGANFSCRTELDLRPQGLELFENTSAPYQLQTFVLPATPPQLVSPRVLEVDTQGTVVCSLDGLFPVSEAQVHLALGDQRLNPTVTYGNDSFSAKASVSVTAEDEGTQRLTCAVILGNQSQETLQTVTIYSFPAPNVILTKPEVSEGTEVTVKCEAHPRAKVTLNGVPAQPLGPRAQLLLKATPEDNGRSFSCSATLEVAGQLIHKNQTRELRVLYGPRLDERDCPGNWTWPENSQQTPMCQAWGNPLPELKCLKDGTFPLPIGESVTVTRDLEGTYLCRARSTQGEVTRKVTVNVLSPRYE | 11 | 0.38 | < 20 | 1.2 | 350 | 1 | 3.1 | – | –
tICAM(185) (receptor, range 1-185; On the UniProt precursor it is shifted by the length of the signal peptide; also called truncated ICAM, domains I and II; two N-terminal domains of ICAM-1) QTSVSPSKVILPRGGSVLVTCSTSCDQPKLLGIETPLPKKELLLPGNNRKVYELSNVQEDSQPMCYSNCPDGQSTAKTFLTVYWTPERVELAPLPSWQPVGKNLTLRCQVEGGAPRANLTVVLLRGEKELKREPAVGEPAEVTTTVLVRRDHHGANFSCRTELDLRPQGLELFENTSAPYQLQTF | – | 8.2 | < 20 | 13.2 | 1000 | 4.3 | 9.7 | 3 | –
Transmembrane intercellular adhesion molecule-1 (tmICAM-1) (receptor, human, UniProt P05362 28-532, looked up, mature; also called HRR; human rhinovirus receptor) QTSVSPSKVILPRGGSVLVTCSTSCDQPKLLGIETPLPKKELLLPGNNRKVYELSNVQEDSQPMCYSNCPDGQSTAKTFLTVYWTPERVELAPLPSWQPVGKNLTLRCQVEGGAPRANLTVVLLRGEKELKREPAVGEPAEVTTTVLVRRDHHGANFSCRTELDLRPQGLELFENTSAPYQLQTFVLPATPPQLVSPRVLEVDTQGTVVCSLDGLFPVSEAQVHLALGDQRLNPTVTYGNDSFSAKASVSVTAEDEGTQRLTCAVILGNQSQETLQTVTIYSFPAPNVILTKPEVSEGTEVTVKCEAHPRAKVTLNGVPAQPLGPRAQLLLKATPEDNGRSFSCSATLEVAGQLIHKNQTRELRVLYGPRLDERDCPGNWTWPENSQQTPMCQAWGNPLPELKCLKDGTFPLPIGESVTVTRDLEGTYLCRARSTQGEVTRKVTVNVLSPRYEIVIITVVAAAVIMGTAGLSTYLYNRQRKIKKYRLQQAQKGTPMKPNTQATPP | – | – | – | – | – | 11.6 | 0.008 | – | 2.3
